Measurements published in patent publication US20100331250A1.

Key:
[1] = target: human VEGF165 (human) (UniProt P15692); assay: cell-based or functional assay
[2] = target: human VEGF165 (human) (UniProt P15692); assay: quantitative ELISA; serial concentrations of fusion protein mixed with 40 pM human VEGF165, detection with anti-human IgG Fc-HRP

UniProt P15692, sequence (P15692 other isoform, or with tags, fused parts or gaps limits assumed): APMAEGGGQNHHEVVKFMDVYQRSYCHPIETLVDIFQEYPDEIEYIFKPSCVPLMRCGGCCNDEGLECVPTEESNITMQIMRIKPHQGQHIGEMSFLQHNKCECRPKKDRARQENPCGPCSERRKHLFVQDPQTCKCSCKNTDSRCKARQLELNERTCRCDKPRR

- growth activity of VEGF on HUVEC (CCK-8, endothelial cell growth assay) [1]: 28 pM
- inhibitory activity against VEGF (HUVEC growth assay) [1]: 14 pM
- EC50 [2]: 0.136 µg/mL
Substance: VEGF-Trap (Fc fusion)
